Data on 2 molecules can be found in patent publication US20240327530A1 (ICHNOS SCIENCES, published 2024).

The term Kd denotes a measure of binding affinity in units of concentration. By koff is commonly meant the first-order rate constant of dissociation. The kon is a measure of how fast the partners come together. The EC50 (read off the curve) is the concentration at which the effect is half-maximal.

Assay [1] concerns the target T1, Recombinant human IL-1RAP-ECD(S21-E359)-avi-his protein (human, UniProt Q9NPH3 21-359).
T1 construct: Biotinylated where loaded on streptavidin; also called human IL-1RAP-ECD-Avi-His; recombinant human IL-1RAP-avi-his protein
T1 sequence: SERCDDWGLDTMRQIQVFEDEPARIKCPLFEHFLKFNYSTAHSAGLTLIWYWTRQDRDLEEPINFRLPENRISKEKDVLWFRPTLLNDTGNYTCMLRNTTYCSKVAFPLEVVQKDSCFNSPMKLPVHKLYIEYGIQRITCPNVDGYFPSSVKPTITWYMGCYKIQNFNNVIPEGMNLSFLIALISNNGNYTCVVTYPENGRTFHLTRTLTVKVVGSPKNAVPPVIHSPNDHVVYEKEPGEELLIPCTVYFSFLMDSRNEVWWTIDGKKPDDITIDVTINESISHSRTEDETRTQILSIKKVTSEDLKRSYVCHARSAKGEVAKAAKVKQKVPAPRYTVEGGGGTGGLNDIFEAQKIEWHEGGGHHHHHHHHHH
The assay can be described thus: SPR, IgG1 LALA captured by anti-human Fc, human IL-1RAP-avi-his as analyte, 1:1 fit. As for the experimental part:
Surface plasmon resonance (SPR) was used to measure the binding affinities of the human IgG1 LALA molecules for human and cynomolgus monkey IL-1RAP. Affinities were measured on a BIACORE™ T200 instrument (BIACORE™, GE […]®) at 25° C. and analyzed with the BIACORE™ T200 Evaluation Software (v3.1). Measurements were performed on Series S CM5 sensor chips (BIACORE™ T200, BIACORE™, GE […]®, catalog no. BR100530) coupled with anti-human IgG Fc (BIACORE™, GE […]®, catalog no. BR100839) using a commercial amine coupling kit (BIACORE™, GE […]®, catalog no. BR100050). SPR measurements were performed with recombinant human IL-1RAP-avi-his protein produced in house (SEQ ID NO. 1) or recombinant cynomolgus monkey IL-1RAP-avi-his protein produced in house (SEQ ID NO. 2). The affinities to human and cynomolgus monkey IL-1RAP were assessed by immobilizing anti-IL-1RAP IgG1 LALA molecules and using IL-1RAP proteins as analyte. Around 150 RU of human IgG1 LALA were captured on fc2 of a Series S CM5 sensor chip coupled with anti-human IgG Fc. Recombinant human IL-1RAP-avi-his protein or recombinant cynomolgus monkey IL-1RAP-avi-his protein was injected in multi cycle kinetic at different concentrations ranging from 0.14 to 100 nM, in HBS-EP+ buffer (BIACORE™, GE […]®, catalog no. BR100669) at a flow rate of 30 μl/min for 3 min on fc1 and fc2 (fc1 being used as reference). Dissociation was monitored for 12 min. After each cycle, the surface was regenerated with 60 μl of regeneration solution provided with anti-human IgG Fc capture kit (BIACORE™, GE […]®, catalog no. BR100839). Experimental data were processed using the 1:1 Langmuir kinetic fitting model. Measurements included zero-concentration samples for referencing. Chi², U- and residual values were used to evaluate the quality of a fit between the experimental data and individual binding models.

The target in assay [2] is T2, Mouse IL-1RAP, membrane-bound on NIH-3T3 cells (mouse, UniProt Q61730 21-570).
T2 construct: Endogenous protein on cells
T2 sequence (looked up): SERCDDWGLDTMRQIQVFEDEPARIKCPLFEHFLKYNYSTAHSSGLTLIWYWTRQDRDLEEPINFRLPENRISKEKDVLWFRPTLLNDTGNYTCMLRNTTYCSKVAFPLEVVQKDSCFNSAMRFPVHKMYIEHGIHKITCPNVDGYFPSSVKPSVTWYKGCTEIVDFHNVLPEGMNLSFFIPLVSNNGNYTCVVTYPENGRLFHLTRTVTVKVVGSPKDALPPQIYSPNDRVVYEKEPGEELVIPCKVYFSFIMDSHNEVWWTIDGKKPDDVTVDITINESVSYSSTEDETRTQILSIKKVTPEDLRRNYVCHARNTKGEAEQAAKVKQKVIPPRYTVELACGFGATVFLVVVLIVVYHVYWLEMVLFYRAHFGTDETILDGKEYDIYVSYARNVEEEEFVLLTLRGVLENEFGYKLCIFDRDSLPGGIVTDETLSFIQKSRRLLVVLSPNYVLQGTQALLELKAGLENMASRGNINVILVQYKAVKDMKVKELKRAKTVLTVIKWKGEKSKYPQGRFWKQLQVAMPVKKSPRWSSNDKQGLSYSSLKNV
Description: flow cytometry on NIH-3T3 cells, PE-Cyanine7 secondary antibody, relative mean fluorescence intensity (isotype subtracted); lower of two curves. How it is done:
In brief, cells were harvested, counted, and plated at 50′000 cells/well in a 96-well round-bottom plate. The plate was centrifuged at 350 g for 3 minutes and the cells were resuspended in […] of FACS® buffer (PBS (1×)+2.5% FCS+2 mM EDTA+0.05% NaN₃) containing various concentrations (ranging from 20 to 0.0001 μg/ml) of either anti-mouse IL-1RAP_candidate_1 or Isotype control_2 antibodies. Stained cells were incubated for 30 minutes at 4° C., washed twice with FACS® buffer at 350 g for 3 min and resuspended in 100 μl of a monoclonal anti-mouse IgG PE-Cyanine7 secondary antibody (Biolegend, 407114) diluted 1/200 in FACS® buffer. Cells were then washed twice, and resuspended in 200 μl of FACS® buffer containing SYTOX® Green dead cell stain (THERMO FISHER […]®, S34860) and samples were acquired on a CYTOFLEX® instruments (Beckman Coulter). The cells were gated based on size on FSC vs SSC and analysed for PE-Cyanine7-geometric mean (geomean) fluorescence intensity using FLOWJO® software. Finally, relative geomean fluorescence intensity was calculated by subtracting fluorescence of anti-mouse IL-1RAP_candidate_1 per fluorescence of Isotype control_2. As depicted in FIG. 11, anti-mouse IL-1RAP_candidate_1 antibody recognizes membrane-bound IL-1RAP expressed on NIH-3T3 cell line. […] Each data point is a measurement for a given cell line. […]
For orientation: A flow cytometer gives signals particle by particle.

B1: Anti-IL-1RAP-C8-RecC-ES-IgG1LALA (antibody, V domains shown)
VH: QVQLVQSGAEVKKPGSSVKVSCKASGSPAEPYAIQWVRQAPGQGLEWMGYIIPSLGGYDYAQKFQGRVTITADESTSTAYMELSSLRSEDTAVYYCARGQTLYESGRQFDIWGQGTLVTVSS
VL: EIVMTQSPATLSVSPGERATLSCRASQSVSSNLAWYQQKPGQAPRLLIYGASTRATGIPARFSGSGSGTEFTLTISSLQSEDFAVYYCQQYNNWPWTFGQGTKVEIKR
notes: also called ISB 880-C8-recC-ES
On to B1, for which, in assay [1], the dissociation constant Kd worked out at 251 pM, the koff came to 0.000172 s⁻¹ and the kon was 693000 M⁻¹ s⁻¹.

B2: Anti-IL-1RAP-C3-A3 mmIgG2a LALA (antibody, V domains shown)
VH: EVQLLESGGGLVQPGGSLRLSCAASGFIFSHYGMSWVRQAPGKGLEWVSAISYDGEGTLYADSVKGRFTISRDNSKNTLYLQMNSLRAEDTAVYYCARFRYYTAFDYWGQGTLVTVSS
VL: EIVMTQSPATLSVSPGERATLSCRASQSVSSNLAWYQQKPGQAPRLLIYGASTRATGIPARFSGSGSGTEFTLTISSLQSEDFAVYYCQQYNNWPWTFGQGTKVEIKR
notes: also called anti-IL-1RAP-C3-A3 mouse IgG2a LALA
For the molecule B2, the “EC50 (read off the curve)” value in assay [2] was about 0.3 µg/mL.
